Two substances from article PMC3953656 can be followed below.

The target of one experiment is malate dehydrogenase (UniProt P00346).
In experiment [1] the target is Trypanosoma brucei Hsp70.c (Trypanosoma brucei brucei TREU927).
In experiment [2] the target is Trypanosoma cruzi Hsp70B (Trypanosoma cruzi).

Chain of UniProt P00346 (P00346 25-338): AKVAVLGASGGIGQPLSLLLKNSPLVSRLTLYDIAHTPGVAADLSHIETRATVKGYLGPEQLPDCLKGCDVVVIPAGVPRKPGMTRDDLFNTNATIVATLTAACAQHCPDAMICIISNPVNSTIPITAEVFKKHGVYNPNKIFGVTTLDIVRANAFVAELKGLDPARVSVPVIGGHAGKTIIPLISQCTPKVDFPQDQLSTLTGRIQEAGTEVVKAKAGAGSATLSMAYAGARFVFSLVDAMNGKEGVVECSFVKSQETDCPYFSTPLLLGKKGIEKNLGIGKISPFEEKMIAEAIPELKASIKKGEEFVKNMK

Turning to “Trypanosoma brucei Hsp70.c (natural protein)”, the suppression of thermal aggregation of MDH (0.72 µM, 48°C, light scatter at 360 nm, 30 min) by TbHsp70.c, dose-dependent; number printed for 0.5 µM TbHsp70.c with malate dehydrogenase came to 61.8%.
“Trypanosoma brucei J protein 2 (natural protein)”: the stimulation of the basal ATPase activity of TbHsp70.c by Tbj2 (colorimetric phosphate release, 37°C, 600 µM ATP); equal concentrations 1.62-fold, Tbj2 at 2-fold molar excess 2.88-fold in experiment [1] turned out to be 2.88 fold. The stimulation of the basal ATPase activity of TcHsp70B by Tbj2 (colorimetric phosphate release, 37°C, 600 µM ATP); equal concentrations 1.39-fold, Tbj2 at 2-fold molar excess 2.62-fold in experiment [2] stood at 2.62 fold.
